Target: the molecule itself
Assay: cross-linking; purified proteins in PBS oxidised with 5, 10 and 20 μM CuCl2 for 10 min (disulfide bonds), non-reducing 10% SDS-PAGE, immunoblot; β-amylase alone or mixed with serpin Z4 at 1:2 and 1:5

B1: serpin Z4 (natural protein, barley (Hordeum vulgare) cv. Harrington, UniProt P06293 1-399, looked up)
chain: MATTLATDVRLSIAHQTRFALRLRSAISSNPERAAGNVAFSPLSLHVALSLITAGAAATRDQLVAILGDGGAGDAKELNALAEQVVQFVLANESSTGGPRIAFANGIFVDASLSLKPSFEELAVCQYKAKTQSVDFQHKTLEAVGQVNSWVEQVTTGLIKQILPPGSVDNTTKLILGNALYFKGAWDQKFDESNTKCDSFHLLDGSSIQTQFMSSTKKQYISSSDNLKVLKLPYAKGHDKRQFSMYILLPGAQDGLWSLAKRLSTEPEFIENHIPKQTVEVGRFQLPKFKISYQFEASSLLRALGLQLPFSEEADLSEMVDSSQGLEISHVFHKSFVEVNEEGTEAGAATVAMGVAMSMPLKVDLVDFVANHPFLFLIREDIAGVVVFVGHVTNPLISA
notes: serpin Z4 of barley (Hordeum vulgare) cv; Harrington, cloned from cDNA into pET28-(a); In one direction of the MST experiment the protein carried an NHS-ester fluorescent dye; in one direction of the SPR experiment it was amine-coupled to a CM5 chip; source: E. coli SHuffle cells, purified (Ni-NTA, gel filtration on Superdex 200 Increase)
  binding result: binds
